In article PMC4117754:

Key:
[1] = test system: PTB1 C4 C250S;C251S;E518C;del1-55, P26599-1; assay: filter binding; conditions: Filter binding: 5 mM Hepes pH 7.4, 100 mM KCl, 3 mM MgCl2, 5% glycerol, 75 ug/ml yeast tRNA, 75 ug/ml BSA, 0.5 mM DTT, room temp; probing: 20 mM HEPES-KOH pH 7.
PTB-GFP = PTB-GFP (UniProt P26599); assay: single-molecule TIRF; conditions: Filter binding: 5 mM Hepes pH 7.4, 100 mM KCl, 3 mM MgCl2, 5% glycerol, 75 ug/ml yeast tRNA, 75 ug/ml BSA, 0.5 mM DTT, room temp, probing: 20 mM HEPES-KOH pH 7.
PTB-GFP, sequence (P26599 whole entry): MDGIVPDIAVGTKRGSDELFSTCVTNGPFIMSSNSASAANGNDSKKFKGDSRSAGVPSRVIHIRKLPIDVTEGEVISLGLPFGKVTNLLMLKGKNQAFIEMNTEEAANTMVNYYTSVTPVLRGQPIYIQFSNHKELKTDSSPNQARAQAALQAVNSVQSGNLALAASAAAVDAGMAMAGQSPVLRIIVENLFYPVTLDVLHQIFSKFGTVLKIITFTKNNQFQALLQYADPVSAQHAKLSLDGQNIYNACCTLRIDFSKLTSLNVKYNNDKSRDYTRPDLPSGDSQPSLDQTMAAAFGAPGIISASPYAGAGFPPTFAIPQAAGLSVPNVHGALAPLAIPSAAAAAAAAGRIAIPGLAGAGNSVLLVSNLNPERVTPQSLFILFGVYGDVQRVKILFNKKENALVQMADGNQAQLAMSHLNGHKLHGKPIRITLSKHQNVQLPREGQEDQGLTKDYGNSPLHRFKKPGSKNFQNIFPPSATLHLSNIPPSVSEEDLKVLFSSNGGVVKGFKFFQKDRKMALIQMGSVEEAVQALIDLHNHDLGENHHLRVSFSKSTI

[2] = test system: PTB1 C1C2 C250S;C251S;Q124C;D284C;del1-55, P26599-1; assay: filter binding; conditions: Filter binding: 5 mM Hepes pH 7.4, 100 mM KCl, 3 mM MgCl2, 5% glycerol, 75 ug/ml yeast tRNA, 75 ug/ml BSA, 0.5 mM DTT, room temp; probing: 20 mM HEPES-KOH pH 7.
PTB1 C1C2 C250S;C251S;Q124C;D284C;del1-55, P26599-1, sequence (P26599 other isoform, or with tags, fused parts or gaps C250S C251S Q124C D284C): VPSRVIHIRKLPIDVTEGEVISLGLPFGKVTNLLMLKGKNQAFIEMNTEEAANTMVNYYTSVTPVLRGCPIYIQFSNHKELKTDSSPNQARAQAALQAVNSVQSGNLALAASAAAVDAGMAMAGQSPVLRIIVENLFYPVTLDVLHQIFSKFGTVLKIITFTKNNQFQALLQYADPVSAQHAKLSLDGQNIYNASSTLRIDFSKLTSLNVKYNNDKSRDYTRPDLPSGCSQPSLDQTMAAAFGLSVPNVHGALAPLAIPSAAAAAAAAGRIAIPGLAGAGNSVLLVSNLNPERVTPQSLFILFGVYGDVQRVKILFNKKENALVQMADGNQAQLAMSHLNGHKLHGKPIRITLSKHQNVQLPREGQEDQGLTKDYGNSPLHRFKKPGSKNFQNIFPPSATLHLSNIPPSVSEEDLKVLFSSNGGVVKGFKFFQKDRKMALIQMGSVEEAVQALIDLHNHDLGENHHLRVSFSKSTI

[3] = test system: PTB1 C1C2m C250S;C251S;Q124C;D284C;I214S;F216A;K218S;del1-55, P26599-1; assay: filter binding; conditions: Filter binding: 5 mM Hepes pH 7.4, 100 mM KCl, 3 mM MgCl2, 5% glycerol, 75 ug/ml yeast tRNA, 75 ug/ml BSA, 0.5 mM DTT, room temp; probing: 20 mM HEPES-KOH pH 7.
PTB1 C1C2m C250S;C251S;Q124C;D284C;I214S;F216A;K218S;del1-55, P26599-1, sequence (P26599 other isoform, or with tags, fused parts or gaps C250S C251S Q124C D284C I214S F216A K218S): as the sequence (P26599 other isoform, or with tags, fused parts or gaps C250S C251S Q124C D284C) above, with I159S, F161A, K163S counted along it

[4] = test system: PTB1 C1mC2 C250S;C251S;Q124C;D284C;del1-55, P26599-1; assay: filter binding; conditions: Filter binding: 5 mM Hepes pH 7.4, 100 mM KCl, 3 mM MgCl2, 5% glycerol, 75 ug/ml yeast tRNA, 75 ug/ml BSA, 0.5 mM DTT, room temp; probing: 20 mM HEPES-KOH pH 7.
PTB1 C1mC2 C250S;C251S;Q124C;D284C;del1-55, P26599-1, sequence (P26599 other isoform, or with tags, fused parts or gaps C250S C251S Q124C D284C): as the sequence (P26599 other isoform, or with tags, fused parts or gaps C250S C251S Q124C D284C) above

[5] = test system: PTB1 C1mC2m C250S;C251S;Q124C;D284C;I214S;F216A;K218S;del1-55, P26599-1; assay: filter binding; conditions: Filter binding: 5 mM Hepes pH 7.4, 100 mM KCl, 3 mM MgCl2, 5% glycerol, 75 ug/ml yeast tRNA, 75 ug/ml BSA, 0.5 mM DTT, room temp; probing: 20 mM HEPES-KOH pH 7.
PTB1 C1mC2m C250S;C251S;Q124C;D284C;I214S;F216A;K218S;del1-55, P26599-1, sequence (P26599 other isoform, or with tags, fused parts or gaps C250S C251S Q124C D284C I214S F216A K218S): as the sequence (P26599 other isoform, or with tags, fused parts or gaps C250S C251S Q124C D284C) above, with I159S, F161A, K163S counted along it

[6] = test system: PTB1 C3C4 C250S;C251S;E518C;del1-55, P26599-1; assay: filter binding; conditions: Filter binding: 5 mM Hepes pH 7.4, 100 mM KCl, 3 mM MgCl2, 5% glycerol, 75 ug/ml yeast tRNA, 75 ug/ml BSA, 0.5 mM DTT, room temp; probing: 20 mM HEPES-KOH pH 7.
PTB1 C3C4 C250S;C251S;E518C;del1-55, P26599-1, sequence (P26599 other isoform, or with tags, fused parts or gaps C250S C251S E518C): as the sequence (P26599 other isoform, or with tags, fused parts or gaps C250S C251S Q124C D284C) above, with C69Q, C229D, E463C counted along it

[7] = test system: PTB1 C3C4m C250S;C251S;E518C;del1-55, P26599-1; assay: filter binding; conditions: Filter binding: 5 mM Hepes pH 7.4, 100 mM KCl, 3 mM MgCl2, 5% glycerol, 75 ug/ml yeast tRNA, 75 ug/ml BSA, 0.5 mM DTT, room temp; probing: 20 mM HEPES-KOH pH 7.
PTB1 C3C4m C250S;C251S;E518C;del1-55, P26599-1, sequence (P26599 other isoform, or with tags, fused parts or gaps C250S C251S E518C): as the sequence (P26599 other isoform, or with tags, fused parts or gaps C250S C251S Q124C D284C) above, with C69Q, C229D, E463C counted along it

[8] = test system: PTB1 C3mC4 C250S;C251S;E518C;del1-55, P26599-1; assay: filter binding; conditions: Filter binding: 5 mM Hepes pH 7.4, 100 mM KCl, 3 mM MgCl2, 5% glycerol, 75 ug/ml yeast tRNA, 75 ug/ml BSA, 0.5 mM DTT, room temp; probing: 20 mM HEPES-KOH pH 7.
PTB1 C3mC4 C250S;C251S;E518C;del1-55, P26599-1, sequence (P26599 other isoform, or with tags, fused parts or gaps C250S C251S E518C): as the sequence (P26599 other isoform, or with tags, fused parts or gaps C250S C251S Q124C D284C) above, with C69Q, C229D, E463C counted along it

[9] = test system: PTB1 C3mC4m C250S;C251S;E518C;del1-55, P26599-1; assay: filter binding; conditions: Filter binding: 5 mM Hepes pH 7.4, 100 mM KCl, 3 mM MgCl2, 5% glycerol, 75 ug/ml yeast tRNA, 75 ug/ml BSA, 0.5 mM DTT, room temp; probing: 20 mM HEPES-KOH pH 7.
PTB1 C3mC4m C250S;C251S;E518C;del1-55, P26599-1, sequence (P26599 other isoform, or with tags, fused parts or gaps C250S C251S E518C): as the sequence (P26599 other isoform, or with tags, fused parts or gaps C250S C251S Q124C D284C) above, with C69Q, C229D, E463C counted along it

[10] = test system: PTB1 C4m C250S;C251S;E518C;del1-55, P26599-1; assay: filter binding; conditions: Filter binding: 5 mM Hepes pH 7.4, 100 mM KCl, 3 mM MgCl2, 5% glycerol, 75 ug/ml yeast tRNA, 75 ug/ml BSA, 0.5 mM DTT, room temp; probing: 20 mM HEPES-KOH pH 7.
PTB1 C4m C250S;C251S;E518C;del1-55, P26599-1, sequence (P26599 other isoform, or with tags, fused parts or gaps C250S C251S E518C): as the sequence (P26599 other isoform, or with tags, fused parts or gaps C250S C251S Q124C D284C) above, with C69Q, C229D, E463C counted along it

[11] = test system: PTB1 C4pack C250S;C251S;E518C;E502K;V505E;I509K;del1-55, P26599-1; assay: filter binding; conditions: Filter binding: 5 mM Hepes pH 7.4, 100 mM KCl, 3 mM MgCl2, 5% glycerol, 75 ug/ml yeast tRNA, 75 ug/ml BSA, 0.5 mM DTT, room temp; probing: 20 mM HEPES-KOH pH 7.
PTB1 C4pack C250S;C251S;E518C;E502K;V505E;I509K;del1-55, P26599-1, sequence (P26599 other isoform, or with tags, fused parts or gaps C250S C251S E518C E502K V505E I509K): as the sequence (P26599 other isoform, or with tags, fused parts or gaps C250S C251S Q124C D284C) above, with C69Q, C229D, E447K, V450E, I454K, E463C counted along it

[12] = test system: PTB1 LmC4 C250S;C251S;E518C;K439A;K440A;del1-55, P26599-1; assay: filter binding; conditions: Filter binding: 5 mM Hepes pH 7.4, 100 mM KCl, 3 mM MgCl2, 5% glycerol, 75 ug/ml yeast tRNA, 75 ug/ml BSA, 0.5 mM DTT, room temp; probing: 20 mM HEPES-KOH pH 7.
PTB1 LmC4 C250S;C251S;E518C;K439A;K440A;del1-55, P26599-1, sequence (P26599 other isoform, or with tags, fused parts or gaps C250S C251S E518C K439A K440A): as the sequence (P26599 other isoform, or with tags, fused parts or gaps C250S C251S Q124C D284C) above, with C69Q, C229D, K384A, K385A, E463C counted along it

PTB1 C4 C250S;C251S;E518C;del1-55, P26599-1, sequence (P26599 other isoform, or with tags, fused parts or gaps C250S C251S E518C): as the sequence (P26599 other isoform, or with tags, fused parts or gaps C250S C251S Q124C D284C) above, with C69Q, C229D, E463C counted along it

Row | Substance | Kd [1] | binding signal (% RNA with bound PTB-GFP) (PTB-GFP) | Kd [2] | Kd [3] | Kd [4] | Kd [5] | Kd [6] | Kd [7] | Kd [8] | Kd [9] | Kd [10] | Kd [11] | Kd [12] | Kd (PTB-GFP; average Kd, 3-4 PTB sites, 2.6% of RNA with bound PTB-GFP, nuclear extract)
1 | AUGUGAACAUGGAAUCAUCAAGGAAUGCACACUCACCAGCAACACCAAGUGCAAAGAGGAAGGUAAUUAUUUUUUUACGGUUAUAUUCUCCUUUCCCCCAACCCCAUGGAAAGAUGUGAAGAAAAACCAAUCACUCUUGAUUACUAGAAAGUCCUUUAUUUAAUCUUAAAGAUUGCUUAUUUUCAUAUAAAAUGUCCAAUGUUCCAACCUACAGGAUCCAGAUCUAACUUGGGGUGGCAAUGCACACUCACCAGGCCAAUUCCACUAAUUGUUUGGGGUAAGUUCUUGCUUUGUUCAAACUGCAGAUUGAAAUAACUUGGGAAGUAGGUGUGAAAGUAUGUUCUCACAUGCAUUCUACAAGGCUGAGACCUGAGUUGAUAAAAUUUCUUUGUUCUUUCAGUGAAGAGAAAGGAAGUACAGAAAACAUGCAGAAAGCACAGAAAGGAA [FAS m0 mutant RNA] | 7.5 nM | 2.9 | – | – | – | – | – | – | – | – | – | – | – | –
2 | AUGUGAACAUGGAAUCAUCAAGGAAUGCACACUCACCAGCAACACCAAGUGCAAAGAGGAAGGUAAUUAUUUUUUUACGGUUAUAUUCUCCUUUCCCCCAACCCCAUGGAAAGAUGUGAAGAAAAACCAAUCACUCUUGAUUACUAGAAAGUCCUUUAUUUAAUCUUAAAGAUUGCUUAUUUUCAUAUAAAAUGUCCAAUGUUCCAACCUACAGGAUCCAGAUCUAACUUGGGGUGGCUUUGUCUUCUUCUUUUGCCAAUUCCACUAAUUGUUUGGGGUAAGUUCUUGCUUUGUUCAAACUGCAGAUUGAAAUAACUUGGGAAGUAGGUGUGAAAGUAUGUUCUCACAUGCAUUCUACAAGGCUGAGACCUGAGUUGAUAAAAUUUCUUUGUUCUUUCAGUGAAGAGAAAGGAAGUACAGAAAACAUGCAGAAAGCACAGAAAGGAA [FAS WT RNA (exon 5-6-7)] | 10.3 nM | – | 10.1 nM | 15.3 nM | 11.6 nM | 12.3 nM | 14.7 nM | 22.9 nM | 16.5 nM | 24.6 nM | 29.9 nM | 6.3 nM | 14.2 nM | 20 nM
3 | Tpm1 RNA | – | 7.9 | – | – | – | – | – | – | – | – | – | – | – | –
